In the RNAGym collection of RNA variant scans (doi:10.1073/pnas.2313332121):

B1: TPR t1 (parent)
chain: GACCAAUCUGCCCUCAGAGCUCGAGAACAUCUUCGGAUGCAGAGGAGGCAGGCUUCGGUGGCGCGAUAGCGCCAACGUCCUCAACCUCCAAUGCAUCCCACCACAUGAUGAUGCCUGAAGAGCCUUGGUUUUUUG

Variants of: B1
Experiment: polymerase ribozyme fitness, log enrichment relative to wild type (log ratio); higher = more active; in vitro selection for triplet polymerase activity
Outline: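 To select mutant libraries of each subunit of a heterodimeric triplet polymerase ribozyme, built by PCR and transcribed, each was annealed with a biotinylated primer, partner subunit and triplets, then incubated frozen at −7 °C. Extended constructs were gel-excised, captured on streptavidin beads and amplified by RT-PCR, in one round carried out in triplicate. Illumina sequencing of input and output libraries kept genotypes with ≥10 input reads and ≥1 read per output. Fitness is the base-2 logarithm of genotype enrichment relative to wild-type enrichment, from inverse-variance-weighted replicate averages.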

Variant | polymerase ribozyme fitness (log ratio)
A29G G120A | -1.03
G69U C72U U87A G113A | -1.35
C53G C80U G128C | -2.66
A118G G122A U129A | -1.35
G17A G113U | -3.81
C114G U130A | -2.22
A27U C70G | -6.31
C13G C22U | -3.6
A43G A46U U112G | -3.43
C56G G63C | -2.95
C11G A16U A24G G47C G63U A111C | -7.31
C53U C72A U81G G120A U129A | -1.13
U54A | 0.0154
U92G U106A | -1.97
U30C G58C C85G | -3.06
G60C U125A | -0.729
C11G C76A C79U A90U A119C G120U | -0.651
U21C A121C | 1.32
G52A C64G C88G G120U | -6.36
U9A U14A A75U C124U G127C | -0.619
C56U U67A | -5.79
C12U G51A G120A G127C G128U | -1.84
G10A A18U A118U | -1.34
C34U C64U G113U | -5.9

Variant | polymerase ribozyme fitness (log ratio)
C12A G48C C72U G117U | -5.59
C12U C97A | -3.91
A27U U54G C123U | -1.23
C49U G110C | -5.17
G36C U112G G117A | -3.75
G42A C62U A83U C85U C124G G128U | -3.77
C12G G36C C114A G120A | -2.67
U9A C13U G25A A29G C53A C114G | -6.86
A74C C104A C114A | -4.14
A2U G47U G61U | -4.48
U116G U125A | -2.37
A6U C11U G47A A118U | -1.52
A2G G17A | -2.9
C76U C102U | -2.21
C8G G19A A46C G71A | -3.53
G113C C123A | -2.82
A68U G93U C101A G113U G117A | -6.33
A2G C28U | -2.27
G36U G45U G47U C101U C104A C123G U125C | -5.24
A119G | 1.12
A37U C53G G63C U116A | -2.98
C40U A41C G48U C56U G58C G63U | -3.13
A16U C70G C79U C94U | -2.44
C11G G35A C73G U81G U109A | -6.69

Variant | polymerase ribozyme fitness (log ratio)
C4U G47U U112C | -0.0324
C12A G36C G60A | -1.66
C89U G117A | -2.43
G48A U130A | -1.78
G36U G71U U87A C104A G113U C115U U130A | -7.12
A6G G61C C89U | -2.67
C3U C12A G69U G117A | -2.56
G71U C94A | -1.14
G60U G107A | -3.31
A43C C76U A91C G93C U112C G113U U116C | -6.51
U38G G58U G63C G113C G135C | -4.03
A41U C114G | -2.94
U92G C94U | -4.52
A121C | 1.74
U7A C12A A83C | -0.0554
C13U U109C | -2.24
U92G A118C | -4
G52C G117A | -1.64
G45U U54A | -1.35
U9G C53A G71U C86U A100U G110U | -4.22
C12G A18G A74U U78G U87A | -4.81
C101A G113U | -3.79
U33A C62U | -5.03
A29U G42C G113U U129A | -4.15

Variant | polymerase ribozyme fitness (log ratio)
C8A G52A C72G | 0.47
A46U C72G A83G G117A U133G | -3.93
C85G G110A | -3.38
C56G U87G | -0.352
C8A C49U A100U G120A | 0.731
C15A C86A U129A | -4.12
U9A C40G G71U | -0.173
U21C G60C | -0.312
A29G C40A C97U G113C | -4.13
G52U C72A C86A G113A G122C | -4.85
U7A C40U G110A | -1.33
C70U C72G A75U | -1.29
U59A U125G | -0.415
U7A C22U G39A G44U C53U C56G G63C C124A U125A | -5.65
G57U U87A C89G C104U | -4.28
G51U U112A U133C | -3.27
C72G C115U U116C | -2.72
C31U A37U C49G A84U C104U G113U U133G | -6.55
A16U A37U C97U | -5.8
G10U C34U G44C U112C | -5
U9A G19C C40G A43U G60U | -3.06
U7A G122U | -1.47
A6G C12A G23C A66G C114U G128A | -5.09
C79A G110U | -3.48

Variant | polymerase ribozyme fitness (log ratio)
A37U C62A U92C | -2.86
G51C C56U C115U U131A | -4.93
U30G C70G C89A A111G | -7.35
C12A C56G A84U | -1.85
C8A C22G A121U | -1.6
A27U G60A C62U G120C | -2.69
A29G A37U C89U C94U C123A U126A | -3.13
G44U G45U G60C C72U C101U A121G U131C | -0.75
G71A A84G C102A C115G | -6.59
G60U C79A | -0.593
G52U U92C C114G | -5.11
U21C G52C G61A C82A | -0.816
A66G A100U G120C | -0.756
G44A C64U G128C U132C | -2.96
A16G C49A C79U G93A G117U C123G | -2.9
C13A G110A | -1.4
U55C G93C U133A | -0.554
C12G C76A U116A | -3.37
A43G A118G | -1.54
U55A G61U C85A C94A | -0.999
A2C G127U | -1.27
G63U C64G | -4.92
U129C U134G | 1.11
C12G U78C | -0.718

Variant | polymerase ribozyme fitness (log ratio)
U21C G120U | -0.0201
C104U C123A U125G | 1.28
G69U C97G | -3.33
C8A C72G | 0.254
A24G G48A G93A C97U A111G | -3.16
G58C U116C | -0.944
C56G A91C G117C A119G | -1.73
C99U C114A | -4.84
C22A G60C U87A | -5.83
C20U C56U G63C C94A G120C | -3.97
G10U U54A | -1.28
A5U A6C C49G U54A | -0.438
G42A G45C | -2.81
G44U A66U | -2.13
C13A G17A C62A G120A | -5.55
G60C U81C | -0.172
C64A C86U A103U C114A | -6.49
C56U G120A | 0.719
G61U C73U G93U | -2.38
C70A C123U | -0.0495
U21C U78A A91U | -1.45
G10C C40G C56G G77U U112C | -0.0532
U9A A46U G77C G122A | -0.702
A2U G57C | -2.3

Variant | polymerase ribozyme fitness (log ratio)
C101U G117U | -1.13
A2C U33A G60A G71U C115U | -6.78
U33G G63U A90U A111G G120C | -6.96
G17U C114A | -5.05
C53A U132A | -0.786
G36A C49G G69U A90G C97U G120C | 0.538
A16U C94U C101U U116C G128U U132A | -5.42
G10A G35A | -3.71
C28A G117A | -4.5
U21A A74C C98A C114G U133G | -7.51
G117C A118C | -3.06
G113U G135U | -3.24
A27U G51U C62A C70U C115G | -6.61
A18U A121C | -0.0692
G10U G63U C79U U132A | -0.795
A50C C73G | -1.15
C15A A91G C123A | -2.45
G48A G57A G69U | -0.155
A27G C56U | -1.35
A5U A41U C64U G120C | -1.19
G17U C62U C73U C101A U130C | -3.73
U7C G17A A84U | -2.39
C72U C85A A105U | -3.17
